# Results as given in the supplement of paper PMC11865577.
# Test system: G-clamp-N3 (biotin conjugate)
# Assay: pull-down binding Z-score (relative to library population); higher = stronger binding
# Details: RNA library: Library-1 (pre-miRNA loops + repeats)
# Outline: (§1)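 Biotin-conjugated small molecule (100 pmol) on streptavidin beads was incubated with 1 μg of heat-folded Cy5- or Cy3-end-labelled RNA library in phosphate/NaCl/KCl buffer at 25 °C for 60 min. Following three washes, RNA was eluted with hot SDS and hybridised at 55.5 °C for 20 h to a DNA barcode microarray. The binding value is a Z-score computed from the library mean and standard deviation, after subtraction of beads without compound and averaging of barcoded replicate probes with the highest and lowest excluded.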
row,Sequence,pull-down binding Z-score
1,CUCUGGUCAGUUGGGAGUCUGAG [hsa-mir-143],0.448
2,CUCUGGUCUAUAAUGGGUUAAAUAGUAGAG [hsa-mir-609],0.305
3,CUCUGUAGUUUUCUUAUAGUG [hsa-mir-644a],-0.255
4,CUCUUGAUAGCAGACAU [hsa-mir-4775],-0.839
5,CUGAAAAUACAAAAUGGAAAAUUCCAG [hsa-mir-4494],-1.38
6,CUGAACCCGUGGGUGAGGAGUGCAG [hsa-mir-4690],0.824
7,CUGAACUGGGCUGGGUUGAGCUGGGCUGGGCUGAGUUGAG [hsa-mir-4538],1.51
8,CUGACCCGUUGUCAGACCUGGAAAAAGGGCCGGCUGUGGGCAGGGAGG [hsa-mir-4761],1.11
9,CUGAGAGGUUUACAUUUCUC [hsa-mir-128-1],-1.07
10,CUGAGAGUGUCAUGGUGGAGCCUCCG [hsa-mir-4784],0.795
11,CUGAGCGGCUCCAUCCCCCGGCCUGCUCAU [hsa-mir-6729],-1.11
12,CUGAGCUGGGUACUGCCUGUUCAG [hsa-mir-589],0.263
13,CUGAGGAAUUUGCUGGGAUAUGUCAG [hsa-mir-584],0.609
14,CUGAGGACAUGCAGUUUCAG [hsa-mir-7702],0.946
15,CUGAGGACUGAGGCUCACCUUG [hsa-mir-6772],0.0792
16,CUGAGUAACUUGUGCUUAUAACUCAG [hsa-mir-5000],0.251
17,CUGAUUCAGAAAGAUCAUCGG [hsa-mir-127],-0.634
18,CUGAUUGUCAUAUGUCGUUUGUGGGAUCCG [hsa-mir-340],-0.698
19,CUGCAGAACAUUGCAG [hsa-mir-4310],0.0291

row,Sequence,pull-down binding Z-score
1,CUGCAGAGACGAGGCCUGUAG [hsa-mir-5682],0.122
2,CUGCAGGAAAGGGAAGACCAAGGCUUGCUGUCUGUCCAGUCUGCCACCCUACCCUGU [hsa-mir-1231],-0.156
3,CUGCAGGGACUGUGACACUGAA [hsa-mir-6816],1.64
4,CUGCAGUGAGCGAUCGGUGCUCUGGGG [hsa-mir-503],1.34
5,CUGCAGUGAGUAGGUCUGCCU [hsa-mir-4254],-0.362
6,CUGCCAUUGAAAGUAAAGGCAA [hsa-mir-548ag-2],0.525
7,CUGCCCCUCGAAUCUGCUCCACGAUUUGGGCAG [hsa-mir-4436a],0.401
8,CUGCGGCCCUGAUGUCUCUACUCCAG [hsa-mir-4691],-0.134
9,CUGCUCUCCCUGGCAGCAAG [hsa-mir-7109],1.5
10,CUGCUGAAUCUUCAGAAAGG [hsa-mir-3142],-0.0627
11,CUGCUGCCGAUUCUGCACCAG [hsa-mir-4756],-1.02
12,CUGCUGCUGCUGCUGCUGCUGCUGCUGCUGCUGCUGCUGCUGCUGCUG [r(CUG)16],2.5
13,CUGCUUUUAAAGGUAAUGGCAA [hsa-mir-548ag-1],-0.0258
14,CUGGAGUCGCCUGAGUCAUCACUCAG [hsa-mir-3065],-0.66
15,CUGGCAUUUACGAGUCAGAGUUCUUACAGAGCUGC [hsa-mir-6514],-1.37
16,CUGGCCAUCAGUGUGGGCUAAC [hsa-mir-6732],-0.237
17,CUGGCUGGUCCAGCCCCUCAGAAG [hsa-mir-6796],-0.944
18,CUGGCUUCUCUGGUUCUCCAGCUUACAG [hsa-mir-1269b],-1.06
19,CUGGGAAGAGACCAUGAACAGGUUAGUCCAG [hsa-mir-4327],-0.176

row,Sequence,pull-down binding Z-score
1,CUGGGAAGGGAGCUGUCCGGCUCCCCAG [hsa-mir-3155b],2.41
2,CUGGGAGGUGUGAUAUCGUGGUUCCUGG [hsa-mir-3689c],0.718
3,CUGGGAGGUGUGAUCCCGUGCUUCCUGG [hsa-mir-3689b],-0.593
4,CUGGGAGGUGUGAUCCUGUGCUUCCUGG [hsa-mir-3689a],-0.339
5,CUGGGGACUGUGUGGACUGGUAUCACCCAG [hsa-mir-2278],0.134
6,CUGGGGAGCCGGACAGCUCCCUUCCCAG [hsa-mir-3155a],0.802
7,CUGGGGGAAGGCUCCAGACCCCAGCCU [hsa-mir-4267],-0.401
8,CUGGGGUUGGAAUGUGACCCCA [hsa-mir-4654],-0.709
9,CUGGGUCCUCUGUGCAGGGUCUUACCCAG [hsa-mir-7850],-0.833
10,CUGGGUGGGACACUCAG [hsa-mir-4692],-0.443
11,CUGGGUUCGGCUGCUACCCCAAA [hsa-mir-6768],-1.38
12,CUGGGUUCUUAGAGGCCUAAUCCUCUACAAACUCAGUUU [hsa-mir-4305],-1.01
13,CUGGUAGUAUAAAACCCAG [hsa-mir-934],0.805
14,CUGGUGUUCUCACGCAAAGUGGCCAGGGUGUGGGAGACUAGA [hsa-mir-7161],2.32
15,CUGUAUGUCCUAACAGUGCUUGUAG [hsa-mir-4794],-0.4
16,CUGUCCCCUGCCACUGGGUGACC [hsa-mir-7114],-0.449
17,CUGUCCUGGACUGGGGUCAGACUGUGCCCCGAGGAGAAGCAG [hsa-mir-922],0.368
18,CUGUCUGUUGUAUAAAAGAAAAGAUCG [hsa-mir-517a],-0.46

# Test system: TO-N3 (biotin conjugate)
# Assay: as above
# Details: RNA library: Library-2
# Outline: as §1
row,Sequence,pull-down binding Z-score
1,CUCAUGUAAACUAAAACAUGAU [hsa-mir-508],-0.229
2,CUCAUUGUUGAAUGGAAUGAGAU [hsa-mir-3145],-0.571
3,CUCCGGGUUGGGG [hsa-mir-1469],-0.718
4,CUCCUAUUGAAAAUGAACAGGAG [hsa-mir-873],-0.285
5,CUCCUCCGCUGCCGCCGGGAGAG [hsa-mir-4785],-0.794
6,CUCGCUGGGAGGUGUGCUAUCGUCUUCCCCGGGAG [hsa-mir-3689d-1],0.154
7,CUCGCUGGGAGGUGUGCUAUCGUCUUCCCUGGGAG [hsa-mir-3689d-2],0.338
8,CUCGGCCAUCCUCCGUCUGCCCAG [hsa-mir-935],0.473
9,CUCGGGAGGCUGAG [hsa-mir-4419a],-0.51
10,CUCGGGUGGAUAAGUCUGAUCUGAG [hsa-mir-3663],-0.554
11,CUCGUCUCUACAAAAAAUUGAGACAGG [hsa-mir-4512],-0.152
12,CUCUAGACUCUAUUAUAGUUUCCUGAG [hsa-mir-558],-0.751
13,CUCUCCUCCAGCUCAGCUGGUCAGGAGAG [hsa-mir-3160-1],0.959
14,CUCUCCUGACCAGCUGAGCUGGAGGAGAG [hsa-mir-3160-2],-0.48
15,CUCUCGUGUCCACUAGCAGGCAGGUUUUCUGACACAGG [hsa-mir-604],-0.0789
16,CUCUCUGUUGCUCUGAAGGAG [hsa-mir-346],-0.183
17,CUCUGAUGUAAUUAGGU [hsa-mir-563],-0.642
18,CUCUGCUGUGUAAAUAGUUCUGAGUAGU [hsa-mir-454],0.186
19,CUCUGGUCAGUUGGGAGUCUGAG [hsa-mir-143],-0.0514

row,Sequence,pull-down binding Z-score
1,CUCUGGUCUAUAAUGGGUUAAAUAGUAGAG [hsa-mir-609],-0.191
2,CUCUGUAGUUUUCUUAUAGUG [hsa-mir-644a],-0.566
3,CUCUUGAUAGCAGACAU [hsa-mir-4775],-0.14
4,CUGAAAAUACAAAAUGGAAAAUUCCAG [hsa-mir-4494],-0.0822
5,CUGAACCCGUGGGUGAGGAGUGCAG [hsa-mir-4690],0.515
6,CUGAACUGGGCUGGGUUGAGCUGGGCUGGGCUGAGUUGAG [hsa-mir-4538],3.25
7,CUGACCCGUUGUCAGACCUGGAAAAAGGGCCGGCUGUGGGCAGGGAGG [hsa-mir-4761],4.2
8,CUGAGAGGUUUACAUUUCUC [hsa-mir-128-1],-0.648
9,CUGAGAGUGUCAUGGUGGAGCCUCCG [hsa-mir-4784],0.735
10,CUGAGCGGCUCCAUCCCCCGGCCUGCUCAU [hsa-mir-6729],1.14
11,CUGAGCUGGGUACUGCCUGUUCAG [hsa-mir-589],0.518
12,CUGAGGAAUUUGCUGGGAUAUGUCAG [hsa-mir-584],0.66
13,CUGAGGACAUGCAGUUUCAG [hsa-mir-7702],-0.651
14,CUGAGGACUGAGGCUCACCUUG [hsa-mir-6772],0.412
15,CUGAGUAACUUGUGCUUAUAACUCAG [hsa-mir-5000],0.194
16,CUGAUUCAGAAAGAUCAUCGG [hsa-mir-127],-0.346
17,CUGAUUGUCAUAUGUCGUUUGUGGGAUCCG [hsa-mir-340],-0.333
18,CUGCAGAACAUUGCAG [hsa-mir-4310],-0.727
